Experimental data from PMC9643438.

What was measured:
Cys273 = Cys273 (UniProt position 273, KHPWICQRSTV); assay: chemical modification (iodoacetamide alkylation) with mass spectrometry readout; conditions: purified, reduced, native CaMKIIdelta; presence of Ca2+/calmodulin not stated
Cys290 = Cys290 (UniProt position 290, QETVDCLKKFN); assay: as above; conditions: purified, reduced, native CaMKIIdelta; presence of Ca2+/calmodulin not stated

Row | Substance | pKa (Cys273) | pKa (Cys290)
1 | Calcium/calmodulin-dependent protein kinase II delta (CaMKIIdelta), 'Cys273' mutant (Homo sapiens; C7S;C290S;C481S) | 7.4 | 
2 | Calcium/calmodulin-dependent protein kinase II delta (CaMKIIdelta), 'Cys290' mutant (Homo sapiens; C7S;C273S;C481S) |  | 9.7
